The target in assay [1] is SARS-CoV-2 Spike-2P stabilized S ectodomain trimer (SARS-CoV-2) (UniProt P0DTC2). As to the kind of experiment: SPR.
The target of the next assay is SARS-CoV-2 spike-HexaPro. Kind of assay: SPR. A general note: SPR reads the build-up and loss of mass on a sensor chip optically.
In the next assay the target is rhFcγRI/CD64 (human) (UniProt P12314). As to the kind of experiment: SPR, DH1042 captured on CM5, receptor titrated.
For the next assay, the target named is rhFcγRIIIA/CD16a (human) (UniProt P08637). As to the kind of experiment: SPR, DH1042 captured on CM5, receptor titrated.
The target of assay [2] is Cent B, centromere B (human) (UniProt P07199). As to the kind of experiment: AtheNA Luminex, mAb at 25 (mg/mL [sic]); <100 negative.
In assay [3] the target is Histone (human). Described as above.
Assay [4] deals with Jo 1 (human) (UniProt P12081). The description is as above.
In assay [5] the target is RNP, ribonucleoprotein (human) (UniProt Q96LT9). The assay is described as above.
For assay [6], the target named is SSA, Sjogren's syndrome antigen A (human). The assay is described as above.
Assay [7] concerns the target SSB, Sjogren's syndrome antigen B (human) (UniProt P05455). The description is as above.
Assay [8] addresses Scl 70, scleroderma 70 (human) (UniProt P11387). The description is as above.
Assay [9] has as its target Sm, small nuclear riboproteins (human). The description is as above.
Assay [10] concerns the target Cent B, centromere B (human) (UniProt P07199). As to the kind of experiment: AtheNA Luminex, mAb at 50 (mg/mL [sic]); <100 negative.
The target of assay [11] is Histone (human). The description is as above.
Assay [12] deals with Jo 1 (human) (UniProt P12081). Described as above.
In assay [13] the target is RNP, ribonucleoprotein (human) (UniProt Q96LT9). The description is as above.
Assay [14] addresses SSA, Sjogren's syndrome antigen A (human). The assay is described as above.
Assay [15] has as its target SSB, Sjogren's syndrome antigen B (human) (UniProt P05455). The description is as above.
Assay [16] deals with Scl 70, scleroderma 70 (human) (UniProt P11387). The assay is described as above.
The target in assay [17] is Sm, small nuclear riboproteins (human). The assay is described as above.
The target of assay [18] is Cent B, centromere B (human) (UniProt P07199). Kind of assay: AtheNA Luminex, mAb at 12.5 (mg/mL [sic]); <100 negative.
Assay [19] has as its target Histone (human). Described as above.
Assay [20] concerns the target Jo 1 (human) (UniProt P12081). Described as above.
The target of assay [21] is RNP, ribonucleoprotein (human) (UniProt Q96LT9). The description is as above.
Assay [22] concerns the target SSA, Sjogren's syndrome antigen A (human). The description is as above.
The target in assay [23] is SSB, Sjogren's syndrome antigen B (human) (UniProt P05455). The assay is described as above.
The target of assay [24] is Scl 70, scleroderma 70 (human) (UniProt P11387). The description is as above.
For assay [25], the target named is Sm, small nuclear riboproteins (human). The assay is described as above.
Assay [26] deals with Cent B, centromere B (human) (UniProt P07199). As to the kind of experiment: AtheNA Luminex, mAb at 6.25 (mg/mL [sic]); <100 negative.
For assay [27], the target named is Histone (human). The description is as above.
The target in assay [28] is Jo 1 (human) (UniProt P12081). The description is as above.
For assay [29], the target named is RNP, ribonucleoprotein (human) (UniProt Q96LT9). The description is as above.
The target in assay [30] is SSA, Sjogren's syndrome antigen A (human). The assay is described as above.
Assay [31] deals with SSB, Sjogren's syndrome antigen B (human) (UniProt P05455). The assay is described as above.
Assay [32] concerns the target Scl 70, scleroderma 70 (human) (UniProt P11387). Described as above.
Assay [33] has as its target Sm, small nuclear riboproteins (human). The description is as above.
For assay [34], the target named is SARS-CoV live virus spike (SARS-CoV) (UniProt P59594). Kind of assay: cell-based or functional assay.
The target of assay [35] is bat CoV RsSHC014 live virus spike (bat coronavirus RsSHC014). Kind of assay: cell-based or functional assay.
Assay [36] has as its target bat CoV WIV-1 live virus spike (bat coronavirus WIV-1). As to the kind of experiment: cell-based or functional assay.

pKd: −log10 of the molar value.

UniProt P12081, sequence (P12081 2-509): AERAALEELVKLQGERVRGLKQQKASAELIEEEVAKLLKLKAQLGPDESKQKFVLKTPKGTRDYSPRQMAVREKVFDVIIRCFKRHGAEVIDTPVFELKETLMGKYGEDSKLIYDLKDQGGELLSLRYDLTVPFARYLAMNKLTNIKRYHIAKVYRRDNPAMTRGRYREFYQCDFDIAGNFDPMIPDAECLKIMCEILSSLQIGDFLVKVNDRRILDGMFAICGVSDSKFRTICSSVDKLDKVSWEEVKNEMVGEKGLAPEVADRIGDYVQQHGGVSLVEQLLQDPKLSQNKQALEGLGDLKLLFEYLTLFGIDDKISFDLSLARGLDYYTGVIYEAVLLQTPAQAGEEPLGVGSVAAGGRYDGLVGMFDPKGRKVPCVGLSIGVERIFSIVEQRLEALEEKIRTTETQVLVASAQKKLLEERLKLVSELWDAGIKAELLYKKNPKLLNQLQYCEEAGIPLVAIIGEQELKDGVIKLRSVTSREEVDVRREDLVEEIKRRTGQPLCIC
UniProt P07199, sequence (P07199 2-599): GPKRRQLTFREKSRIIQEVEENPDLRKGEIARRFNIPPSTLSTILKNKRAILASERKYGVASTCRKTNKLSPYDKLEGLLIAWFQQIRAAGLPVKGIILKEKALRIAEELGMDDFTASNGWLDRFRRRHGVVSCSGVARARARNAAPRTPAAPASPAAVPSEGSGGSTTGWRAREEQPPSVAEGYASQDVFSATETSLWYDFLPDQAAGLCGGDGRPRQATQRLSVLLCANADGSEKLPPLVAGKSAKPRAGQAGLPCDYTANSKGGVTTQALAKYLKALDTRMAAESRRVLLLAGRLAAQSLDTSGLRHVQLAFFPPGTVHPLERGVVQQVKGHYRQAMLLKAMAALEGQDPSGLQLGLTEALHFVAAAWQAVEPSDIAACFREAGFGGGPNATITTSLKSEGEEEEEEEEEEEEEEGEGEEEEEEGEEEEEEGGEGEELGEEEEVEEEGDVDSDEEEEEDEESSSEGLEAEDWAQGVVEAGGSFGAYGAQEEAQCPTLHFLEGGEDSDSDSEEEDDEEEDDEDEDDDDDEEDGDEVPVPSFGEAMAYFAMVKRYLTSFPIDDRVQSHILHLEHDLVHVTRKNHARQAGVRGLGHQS
UniProt P11387, sequence (P11387 2-765): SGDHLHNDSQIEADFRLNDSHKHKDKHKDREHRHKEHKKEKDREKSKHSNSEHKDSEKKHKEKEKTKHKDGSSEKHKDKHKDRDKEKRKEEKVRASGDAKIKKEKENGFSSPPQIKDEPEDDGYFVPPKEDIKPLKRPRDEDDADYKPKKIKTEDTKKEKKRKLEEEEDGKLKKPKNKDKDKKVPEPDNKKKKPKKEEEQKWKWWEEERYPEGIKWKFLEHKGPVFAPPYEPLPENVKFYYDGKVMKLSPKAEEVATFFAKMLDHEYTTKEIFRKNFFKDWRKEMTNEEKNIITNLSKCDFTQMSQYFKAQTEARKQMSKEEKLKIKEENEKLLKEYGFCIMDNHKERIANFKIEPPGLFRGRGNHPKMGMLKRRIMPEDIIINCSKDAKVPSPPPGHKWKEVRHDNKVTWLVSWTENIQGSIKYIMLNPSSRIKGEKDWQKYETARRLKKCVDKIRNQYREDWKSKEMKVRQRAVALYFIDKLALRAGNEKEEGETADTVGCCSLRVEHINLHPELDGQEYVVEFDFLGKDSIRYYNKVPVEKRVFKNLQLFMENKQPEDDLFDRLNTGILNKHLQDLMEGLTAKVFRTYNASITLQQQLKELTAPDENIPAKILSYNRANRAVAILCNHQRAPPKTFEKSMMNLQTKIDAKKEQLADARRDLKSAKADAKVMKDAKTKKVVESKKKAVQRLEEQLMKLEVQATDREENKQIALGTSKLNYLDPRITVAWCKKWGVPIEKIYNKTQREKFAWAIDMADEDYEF
UniProt Q96LT9, sequence (Q96LT9 whole entry): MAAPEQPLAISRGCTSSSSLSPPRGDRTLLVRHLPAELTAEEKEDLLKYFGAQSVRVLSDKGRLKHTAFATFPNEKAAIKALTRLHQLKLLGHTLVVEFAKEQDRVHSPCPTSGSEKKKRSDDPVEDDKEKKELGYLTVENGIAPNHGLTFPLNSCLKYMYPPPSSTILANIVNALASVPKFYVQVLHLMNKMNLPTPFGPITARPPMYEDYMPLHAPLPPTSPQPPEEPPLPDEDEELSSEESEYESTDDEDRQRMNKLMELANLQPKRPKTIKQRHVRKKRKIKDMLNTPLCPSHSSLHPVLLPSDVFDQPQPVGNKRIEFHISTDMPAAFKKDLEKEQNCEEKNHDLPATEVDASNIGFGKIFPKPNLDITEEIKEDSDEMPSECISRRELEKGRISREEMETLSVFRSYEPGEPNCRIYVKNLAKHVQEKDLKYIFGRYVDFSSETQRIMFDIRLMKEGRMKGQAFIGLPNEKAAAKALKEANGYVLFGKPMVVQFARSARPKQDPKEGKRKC
UniProt P05455, sequence (P05455 whole entry): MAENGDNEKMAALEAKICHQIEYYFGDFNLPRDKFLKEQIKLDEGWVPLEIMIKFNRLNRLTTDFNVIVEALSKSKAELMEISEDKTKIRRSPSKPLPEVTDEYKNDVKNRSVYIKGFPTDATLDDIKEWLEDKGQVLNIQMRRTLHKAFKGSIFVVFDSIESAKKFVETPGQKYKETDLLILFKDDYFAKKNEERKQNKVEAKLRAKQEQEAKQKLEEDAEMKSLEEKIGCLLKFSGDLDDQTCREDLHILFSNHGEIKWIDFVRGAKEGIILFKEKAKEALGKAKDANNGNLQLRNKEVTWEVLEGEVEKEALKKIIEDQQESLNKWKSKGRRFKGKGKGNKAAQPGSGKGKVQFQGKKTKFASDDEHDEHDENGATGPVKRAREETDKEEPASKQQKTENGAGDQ
UniProt P12314, sequence (P12314 16-288 limits assumed): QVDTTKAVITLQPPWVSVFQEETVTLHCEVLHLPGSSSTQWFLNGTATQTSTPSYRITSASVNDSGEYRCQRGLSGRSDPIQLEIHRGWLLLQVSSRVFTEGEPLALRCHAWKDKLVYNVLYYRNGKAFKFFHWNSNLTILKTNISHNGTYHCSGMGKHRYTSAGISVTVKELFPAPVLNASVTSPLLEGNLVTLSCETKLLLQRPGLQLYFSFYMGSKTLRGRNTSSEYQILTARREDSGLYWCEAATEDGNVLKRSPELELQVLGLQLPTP
UniProt P08637, sequence (P08637 17-208 limits assumed): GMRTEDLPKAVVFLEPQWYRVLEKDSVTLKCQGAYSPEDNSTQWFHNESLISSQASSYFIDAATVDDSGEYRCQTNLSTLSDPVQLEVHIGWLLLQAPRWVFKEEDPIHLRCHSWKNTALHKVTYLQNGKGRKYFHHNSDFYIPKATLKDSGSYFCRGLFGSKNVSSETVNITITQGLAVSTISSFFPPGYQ

As to DH1042, the figures for the pKd (in [1]; in the assay with SARS-CoV-2 spike-HexaPro) were 9.22 and 9.10, respectively.

Turning to DH1042 (antibody), the pKd with rhFcγRI/CD64 (human) was 3.38; in the assay with rhFcγRIIIA/CD16a (human) it was 6.39. Moreover, the AtheNA value in [2] is 26; in the assay with Histone (human) [3], 6; in the assay with Jo 1 (human) [4] it was 4; in assay [5], 4; in [6], 2; in [7] it was 5. Moreover, the AtheNA value in [8] was 2; in [9], 2; in assay [10], 56; with Histone (human) [11], 9; in the assay with Jo 1 (human) [12] it was 2; in assay [13], 6. The AtheNA value turned out to be 2 in assay [14]; 4 in [15]; 1 in [16]; 3 in assay [17]; 12 in [18]; 3 with Histone (human) [19]. Besides, the AtheNA value with Jo 1 (human) [20] is 1; in assay [21], 0; in assay [22], 3; in [23], 2; in assay [24] it was 0; in [25] it was 1. The AtheNA value in assay [26] came out at 6; in the assay with Histone (human) [27], 2; with Jo 1 (human) [28], 2; in assay [29] it was 1; in assay [30] it was 1; in assay [31], 3. For the same substance, the AtheNA value worked out at 1 in assay [32] and 3 in [33].

As for DH1047, the pKd in assay [1] is more than 10.00; with SARS-CoV-2 spike-HexaPro, 10.10.

Consider DH1047 (antibody), for which the live virus neutralization IC50 in [34] turned out to be 0.028 µg/mL; in [35] it was 0.2 µg/mL; in assay [36], 0.191 µg/mL.

The term pKd denotes the negative decadic logarithm of the Kd, by convention in mol/L. Read a low pKd as a high Kd.

For the origin of these results see patent US20250188154A1.
